pKd: −log10 of the molar value.
Target: TGFβ1 (Homo sapiens) (UniProt P01137)
Experiment: filter
Details: 2'-F pyrimidines, 3' fixed sequence removed

TGFβ1 (Homo sapiens), sequence (P01137 279-390): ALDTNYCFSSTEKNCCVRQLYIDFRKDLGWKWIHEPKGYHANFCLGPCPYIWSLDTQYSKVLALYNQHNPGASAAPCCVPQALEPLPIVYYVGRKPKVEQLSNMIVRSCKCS

Row | Sequence | pKd (plateau 15%) | further results
1 | GGGAGAGGGGUCUGGAAUUUUUGGNUUACCCGUACGCCAGACGACUCGCCCGA [30NtruNc 9] | – | pKd (plateau 20%): 10.00
2 | GGGAGANCUGGUAAUUUUGGUUUANCCGUAUNCCCAGACGACUCGCCCGA [30NtruNc 32] | 7.66 | –
3 | GGGAGCGGAAUUUUUGUGUAGACGUAUGCCGCUUUGNCCAGACGACUCGCCCGA [30NtruNc 37] | 10.08 | –
4 | GGGAGGGUUAACCGUUAAGACGGCGUNAUUUUGUCCCCAGACGACUCGCCCGA [30NtruNc 7] | – | pKd (plateau 25%): 8.70

From patent publication US20030003461
